Measured values taken from patent publication US20180105569A1 (INDIANA UNIVERSITY RESEARCH AND TECHNOLOGY, published 2018).
Numbered stars: 1 amine (or outer) side, 2 acyl side, 3 side chain; on linkers, the order of the positions; unused ones are H or OH. Square brackets hold non-standard residues; d marks the D form. Side chains are listed from the residue outwards. * marks the point of attachment. γGlu = O=C(O)[C@H](CCC(=O)[*:2])N[*:1]; Desaminotyrosyl = O=C(CCc1ccc(O)cc1)*; Palmitoyl = CCCCCCCCCCCCCCCC(=O)*

T1: GIP receptor (UniProt P48546 22-466, limits assumed)
T1 sequence (looked up): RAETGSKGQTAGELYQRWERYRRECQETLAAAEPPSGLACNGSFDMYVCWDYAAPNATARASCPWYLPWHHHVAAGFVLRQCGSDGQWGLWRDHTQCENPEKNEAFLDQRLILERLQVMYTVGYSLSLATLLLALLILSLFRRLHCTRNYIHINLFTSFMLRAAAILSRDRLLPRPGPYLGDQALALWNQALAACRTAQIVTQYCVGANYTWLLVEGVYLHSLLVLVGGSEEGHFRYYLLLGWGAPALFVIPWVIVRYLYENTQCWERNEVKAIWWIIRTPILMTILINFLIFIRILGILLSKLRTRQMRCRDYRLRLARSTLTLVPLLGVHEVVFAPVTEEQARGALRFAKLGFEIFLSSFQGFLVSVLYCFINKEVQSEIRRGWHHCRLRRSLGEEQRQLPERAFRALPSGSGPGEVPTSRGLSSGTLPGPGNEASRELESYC

B1: peptide of SEQ ID NO: 146 (peptide)
peptide: Ac-[dY]AQGTFTSDK([γGlu-Palmitoyl])SKYLDERAAQDFVQWLLEAGPSSGAPPPS-NH2
SMILES: CCCCCCCCCCCCCCCC(=O)N[C@@H](CCC(=O)NCCCC[C@H](NC(=O)[C@H](CC(=O)O)NC(=O)[C@H](CO)NC(=O)[C@@H](NC(=O)[C@H](Cc1ccccc1)NC(=O)[C@@H](NC(=O)CNC(=O)[C@H](CCC(N)=O)NC(=O)[C@H](C)NC(=O)[C@@H](Cc1ccc(O)cc1)NC(C)=O)[C@@H](C)O)[C@@H](C)O)C(=O)N[C@@H](CO)C(=O)N[C@@H](CCCCN)C(=O)N[C@@H](Cc1ccc(O)cc1)C(=O)N[C@@H](CC(C)C)C(=O)N[C@@H](CC(=O)O)C(=O)N[C@@H](CCC(=O)O)C(=O)N[C@@H](CCCNC(=N)N)C(=O)N[C@@H](C)C(=O)N[C@@H](C)C(=O)N[C@@H](CCC(N)=O)C(=O)N[C@@H](CC(=O)O)C(=O)N[C@@H](Cc1ccccc1)C(=O)N[C@H](C(=O)N[C@@H](CCC(N)=O)C(=O)N[C@@H](Cc1c[nH]c2ccccc12)C(=O)N[C@@H](CC(C)C)C(=O)N[C@@H](CC(C)C)C(=O)N[C@@H](CCC(=O)O)C(=O)N[C@@H](C)C(=O)NCC(=O)N1CCC[C@H]1C(=O)N[C@@H](CO)C(=O)N[C@@H](CO)C(=O)NCC(=O)N[C@@H](C)C(=O)N1CCC[C@H]1C(=O)N1CCC[C@H]1C(=O)N1CCC[C@H]1C(=O)N[C@@H](CO)C(N)=O)C(C)C)C(=O)O

Biological target: T2, glucagon receptor (UniProt P47871 26-477, limits assumed)
T2 sequence (P47871 26-477 limits assumed): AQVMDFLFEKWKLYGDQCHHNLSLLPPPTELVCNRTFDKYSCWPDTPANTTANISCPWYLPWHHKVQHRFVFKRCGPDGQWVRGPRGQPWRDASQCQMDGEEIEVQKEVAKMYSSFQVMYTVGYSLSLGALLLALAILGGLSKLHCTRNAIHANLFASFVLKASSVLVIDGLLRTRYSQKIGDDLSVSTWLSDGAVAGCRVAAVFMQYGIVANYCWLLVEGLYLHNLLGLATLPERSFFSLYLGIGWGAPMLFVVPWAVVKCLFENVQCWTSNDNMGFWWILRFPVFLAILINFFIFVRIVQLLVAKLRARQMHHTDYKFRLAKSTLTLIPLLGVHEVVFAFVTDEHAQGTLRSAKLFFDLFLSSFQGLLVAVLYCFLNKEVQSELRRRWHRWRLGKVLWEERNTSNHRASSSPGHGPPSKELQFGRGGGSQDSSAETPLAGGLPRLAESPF
Assay: cell-based or functional assay

Binder	EC50 at Glucagon Receptor (cAMP luciferase reporter, HEK293)
B1	0.009 nM
Ac-[dY]AQGTFTSDK([γGlu-Palmitoyl])SKYLDERAAQDFVQWLLDAGPSSGAPPPS-NH2 [peptide of SEQ ID NO: 143]	0.004 nM
Ac-[dH]AQGTFTSDYSKYLDERAAQDFVQWLLEGGPSSGAPPPSK([γGlu-γGlu-Palmitoyl])G-NH2 [peptide of SEQ ID NO: 152]	0.003 nM
Ac-[dY]AQGTFTSDK([γGlu-Palmitoyl])SKYLDERAAQDFVQWLLDLGPSSGAPPPS-NH2 [peptide of SEQ ID NO: 153]	0.021 nM

Biological target: T3, GLP-1 receptor (UniProt P43220 24-463, limits assumed)
Assay: cell-based or functional assay

Binder	EC50 at GLP-1 Receptor (cAMP luciferase reporter, HEK293)
B1	0.007 nM
Ac-[dY]AQGTFTSDK([γGlu-Palmitoyl])SKYLDERAAQDFVQWLLDAGPSSGAPPPS-NH2 [peptide of SEQ ID NO: 143]	0.003 nM
Ac-[dH]AQGTFTSDYSKYLDERAAQDFVQWLLEGGPSSGAPPPSK([γGlu-γGlu-Palmitoyl])G-NH2 [peptide of SEQ ID NO: 152]	0.003 nM
Ac-[dY]AQGTFTSDK([γGlu-Palmitoyl])SKYLDERAAQDFVQWLLDLGPSSGAPPPS-NH2 [peptide of SEQ ID NO: 153]	0.017 nM

Biological target: T1, GIP receptor
Assay: cell-based or functional assay

Binder	EC50 at GIP Receptor (cAMP luciferase reporter, HEK293)
B1	0.006 nM
Ac-[dY]AQGTFTSDK([γGlu-Palmitoyl])SKYLDERAAQDFVQWLLDAGPSSGAPPPS-NH2 [peptide of SEQ ID NO: 143]	0.003 nM
Ac-[dH]AQGTFTSDYSKYLDERAAQDFVQWLLEGGPSSGAPPPSK([γGlu-γGlu-Palmitoyl])G-NH2 [peptide of SEQ ID NO: 152]	0.017 nM
Ac-[dY]AQGTFTSDK([γGlu-Palmitoyl])SKYLDERAAQDFVQWLLDLGPSSGAPPPS-NH2 [peptide of SEQ ID NO: 153]	0.018 nM

Biological target: T2, glucagon receptor
Assay: cell-based or functional assay
Remark: another data set of the same source

Binder	EC50 at Glucagon Receptor (cAMP luciferase reporter, HEK293)
Ac-[dY]AQGTFTSDYSKYLDERAAQDFVQWLLEAGPSSGAPPPSK([γGlu-γGlu-Palmitoyl])G-NH2 [peptide of SEQ ID NO: 159]	0.04 nM
[Desaminotyrosyl]AQGTFTSDYSKYLDERAAQDFVQWLLEGGPSSGAPPPSK(Palmitoyl)G-NH2 [peptide of SEQ ID NO: 157]	0.047 nM
Ac-[dH]AEGTFTSDK([γGlu-Palmitoyl])SKYLDERAAQDFVQWLLEAGPSSGAPPPS-NH2 [peptide of SEQ ID NO: 154]	0.847 nM
Ac-[dH]AQGTFTSDK([γGlu-Palmitoyl])SKYLDERAAQDFVQWLLEAGPSSGAPPPS-NH2 [peptide of SEQ ID NO: 151]	0.003 nM
[Desaminotyrosyl]AQGTFTSDYSKYLDERAAQDFVQWLLEGGPSSGAPPPSK([γGlu-γGlu-Palmitoyl])G-NH2 [peptide of SEQ ID NO: 160]	0.049 nM
Ac-[dY]AQGTFTSDYSKYLDERAAQDFVQWLLEGGPSSGAPPPSK([γGlu-γGlu-Palmitoyl])G-NH2 [peptide of SEQ ID NO: 149]	0.012 nM
Ac-[dF]AQGTFTSDK([γGlu-Palmitoyl])SKYLDERAAQDFVQWLLEGGPSSGAPPPS-NH2 [peptide of SEQ ID NO: 150]	0.014 nM

Biological target: T3, GLP-1 receptor
Assay: cell-based or functional assay
Remark: another data set of the same source

Binder	EC50 at GLP-1 Receptor (cAMP luciferase reporter, HEK293)
Ac-[dY]AQGTFTSDYSKYLDERAAQDFVQWLLEAGPSSGAPPPSK([γGlu-γGlu-Palmitoyl])G-NH2 [peptide of SEQ ID NO: 159]	0.009 nM
[Desaminotyrosyl]AQGTFTSDYSKYLDERAAQDFVQWLLEGGPSSGAPPPSK(Palmitoyl)G-NH2 [peptide of SEQ ID NO: 157]	0.013 nM
Ac-[dH]AEGTFTSDK([γGlu-Palmitoyl])SKYLDERAAQDFVQWLLEAGPSSGAPPPS-NH2 [peptide of SEQ ID NO: 154]	0.004 nM
Ac-[dH]AQGTFTSDK([γGlu-Palmitoyl])SKYLDERAAQDFVQWLLEAGPSSGAPPPS-NH2 [peptide of SEQ ID NO: 151]	0.002 nM
[Desaminotyrosyl]AQGTFTSDYSKYLDERAAQDFVQWLLEGGPSSGAPPPSK([γGlu-γGlu-Palmitoyl])G-NH2 [peptide of SEQ ID NO: 160]	0.022 nM
Ac-[dY]AQGTFTSDYSKYLDERAAQDFVQWLLEGGPSSGAPPPSK([γGlu-γGlu-Palmitoyl])G-NH2 [peptide of SEQ ID NO: 149]	0.002 nM
Ac-[dF]AQGTFTSDK([γGlu-Palmitoyl])SKYLDERAAQDFVQWLLEGGPSSGAPPPS-NH2 [peptide of SEQ ID NO: 150]	0.002 nM

Biological target: T1, GIP receptor
Assay: cell-based or functional assay
Remark: another data set of the same source

Binder	EC50 at GIP Receptor (cAMP luciferase reporter, HEK293)
Ac-[dY]AQGTFTSDYSKYLDERAAQDFVQWLLEAGPSSGAPPPSK([γGlu-γGlu-Palmitoyl])G-NH2 [peptide of SEQ ID NO: 159]	0.08 nM
[Desaminotyrosyl]AQGTFTSDYSKYLDERAAQDFVQWLLEGGPSSGAPPPSK(Palmitoyl)G-NH2 [peptide of SEQ ID NO: 157]	0.059 nM
Ac-[dH]AEGTFTSDK([γGlu-Palmitoyl])SKYLDERAAQDFVQWLLEAGPSSGAPPPS-NH2 [peptide of SEQ ID NO: 154]	0.024 nM
Ac-[dH]AQGTFTSDK([γGlu-Palmitoyl])SKYLDERAAQDFVQWLLEAGPSSGAPPPS-NH2 [peptide of SEQ ID NO: 151]	0.014 nM
[Desaminotyrosyl]AQGTFTSDYSKYLDERAAQDFVQWLLEGGPSSGAPPPSK([γGlu-γGlu-Palmitoyl])G-NH2 [peptide of SEQ ID NO: 160]	0.086 nM
Ac-[dY]AQGTFTSDYSKYLDERAAQDFVQWLLEGGPSSGAPPPSK([γGlu-γGlu-Palmitoyl])G-NH2 [peptide of SEQ ID NO: 149]	0.008 nM
Ac-[dF]AQGTFTSDK([γGlu-Palmitoyl])SKYLDERAAQDFVQWLLEGGPSSGAPPPS-NH2 [peptide of SEQ ID NO: 150]	0.011 nM
